Like-named read-outs stand apart in the source and are kept apart here.
Legend:
hNPR1-ANP complex [1] = target: T1, hNPR1-ANP complex (human, UniProt P01160 124-151, limits assumed); experiment: ELISA, IgG titrated on coated antigen with ANP (250 fold molar excess), fluorescence [Cont.]
T1 construct: hNPR1 antigen in the presence of ANP; also called hNPR1 + 100 nM ANP
T1 sequence: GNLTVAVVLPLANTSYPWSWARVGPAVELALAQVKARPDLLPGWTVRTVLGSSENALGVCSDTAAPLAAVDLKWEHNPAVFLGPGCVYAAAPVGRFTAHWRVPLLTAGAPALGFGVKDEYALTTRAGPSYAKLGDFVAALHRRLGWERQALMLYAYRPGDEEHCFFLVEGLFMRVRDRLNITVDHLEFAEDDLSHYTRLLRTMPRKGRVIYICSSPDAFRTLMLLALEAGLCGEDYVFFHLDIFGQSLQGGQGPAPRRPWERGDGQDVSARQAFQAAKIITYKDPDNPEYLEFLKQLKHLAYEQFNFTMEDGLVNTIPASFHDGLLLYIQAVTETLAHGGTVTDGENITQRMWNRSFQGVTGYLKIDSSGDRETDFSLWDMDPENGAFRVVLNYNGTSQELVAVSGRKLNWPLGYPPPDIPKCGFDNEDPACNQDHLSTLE
T1 sequence (peptide): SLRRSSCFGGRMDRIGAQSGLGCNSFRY

rNPR1-ANP complex [2] = target: T2, rNPR1-ANP complex (rat, UniProt P01160 124-151 (human entry), limits assumed); experiment: as above
T2 construct: rNPR1 antigen in the presence of ANP; also called rNPR1 + 100 nM ANP
T2 sequence: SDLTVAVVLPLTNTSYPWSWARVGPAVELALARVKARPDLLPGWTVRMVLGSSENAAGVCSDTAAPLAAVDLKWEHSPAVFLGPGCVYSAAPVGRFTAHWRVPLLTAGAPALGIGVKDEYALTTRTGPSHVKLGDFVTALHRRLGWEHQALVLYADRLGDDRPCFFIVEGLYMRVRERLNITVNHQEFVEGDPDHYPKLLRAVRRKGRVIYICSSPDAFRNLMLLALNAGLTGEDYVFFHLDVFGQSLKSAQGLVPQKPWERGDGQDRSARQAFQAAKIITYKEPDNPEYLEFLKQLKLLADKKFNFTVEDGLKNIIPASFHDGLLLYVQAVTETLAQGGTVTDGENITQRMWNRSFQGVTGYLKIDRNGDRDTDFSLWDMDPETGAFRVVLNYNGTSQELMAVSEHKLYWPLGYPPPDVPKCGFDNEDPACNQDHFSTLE
T2 sequence (peptide): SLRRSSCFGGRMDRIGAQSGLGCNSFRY

[3] = target: T3, human NPR1 on CHO-K1 cells (human, UniProt P16066 33-1061); experiment: flow cytometry (FL2-H) on hNPR1 CHO-K1 cells without ANP, IgG titrated; control parental CHO-K1 [panel YY02]
T3 construct: also called hNPR1 CHO K1; human NPR1 expressing CHO-K1 cells
T3 sequence: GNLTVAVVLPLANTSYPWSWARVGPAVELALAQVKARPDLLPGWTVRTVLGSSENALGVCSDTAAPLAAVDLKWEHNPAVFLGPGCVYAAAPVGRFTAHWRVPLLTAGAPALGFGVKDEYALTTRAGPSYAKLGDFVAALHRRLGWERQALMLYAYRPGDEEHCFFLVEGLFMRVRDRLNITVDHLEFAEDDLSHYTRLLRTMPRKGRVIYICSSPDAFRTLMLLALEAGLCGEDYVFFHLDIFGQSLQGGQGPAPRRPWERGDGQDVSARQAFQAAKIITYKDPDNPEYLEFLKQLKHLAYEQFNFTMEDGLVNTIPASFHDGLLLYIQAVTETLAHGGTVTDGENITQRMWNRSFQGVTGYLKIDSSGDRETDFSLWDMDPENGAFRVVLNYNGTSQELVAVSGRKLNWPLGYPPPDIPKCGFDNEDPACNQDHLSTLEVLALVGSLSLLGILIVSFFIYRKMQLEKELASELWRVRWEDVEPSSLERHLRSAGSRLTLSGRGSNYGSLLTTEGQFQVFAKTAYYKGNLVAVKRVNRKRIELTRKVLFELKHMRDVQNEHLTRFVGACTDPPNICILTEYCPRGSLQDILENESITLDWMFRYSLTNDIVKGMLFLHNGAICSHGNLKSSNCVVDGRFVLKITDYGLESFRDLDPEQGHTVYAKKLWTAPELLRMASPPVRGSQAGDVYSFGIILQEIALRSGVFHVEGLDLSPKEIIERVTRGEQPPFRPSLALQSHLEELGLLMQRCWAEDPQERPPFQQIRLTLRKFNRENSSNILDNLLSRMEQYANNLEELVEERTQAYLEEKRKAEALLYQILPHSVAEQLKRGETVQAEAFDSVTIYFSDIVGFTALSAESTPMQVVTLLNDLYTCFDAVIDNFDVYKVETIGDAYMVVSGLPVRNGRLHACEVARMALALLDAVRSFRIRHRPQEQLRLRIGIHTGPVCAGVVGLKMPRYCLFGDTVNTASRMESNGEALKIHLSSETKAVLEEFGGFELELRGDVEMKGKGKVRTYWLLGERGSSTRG

[4] = target: T4, human NPR1 on CHO-K1 cells in the presence of ANP (human, UniProt P01160 124-151); experiment: flow cytometry (FL2-H) on hNPR1 CHO-K1 cells with saturating ANP, IgG titrated; control parental CHO-K1 [panel YY02]
T4 construct: also called hNPR1 CHO K1 + 100 nM ANP
T4 sequence: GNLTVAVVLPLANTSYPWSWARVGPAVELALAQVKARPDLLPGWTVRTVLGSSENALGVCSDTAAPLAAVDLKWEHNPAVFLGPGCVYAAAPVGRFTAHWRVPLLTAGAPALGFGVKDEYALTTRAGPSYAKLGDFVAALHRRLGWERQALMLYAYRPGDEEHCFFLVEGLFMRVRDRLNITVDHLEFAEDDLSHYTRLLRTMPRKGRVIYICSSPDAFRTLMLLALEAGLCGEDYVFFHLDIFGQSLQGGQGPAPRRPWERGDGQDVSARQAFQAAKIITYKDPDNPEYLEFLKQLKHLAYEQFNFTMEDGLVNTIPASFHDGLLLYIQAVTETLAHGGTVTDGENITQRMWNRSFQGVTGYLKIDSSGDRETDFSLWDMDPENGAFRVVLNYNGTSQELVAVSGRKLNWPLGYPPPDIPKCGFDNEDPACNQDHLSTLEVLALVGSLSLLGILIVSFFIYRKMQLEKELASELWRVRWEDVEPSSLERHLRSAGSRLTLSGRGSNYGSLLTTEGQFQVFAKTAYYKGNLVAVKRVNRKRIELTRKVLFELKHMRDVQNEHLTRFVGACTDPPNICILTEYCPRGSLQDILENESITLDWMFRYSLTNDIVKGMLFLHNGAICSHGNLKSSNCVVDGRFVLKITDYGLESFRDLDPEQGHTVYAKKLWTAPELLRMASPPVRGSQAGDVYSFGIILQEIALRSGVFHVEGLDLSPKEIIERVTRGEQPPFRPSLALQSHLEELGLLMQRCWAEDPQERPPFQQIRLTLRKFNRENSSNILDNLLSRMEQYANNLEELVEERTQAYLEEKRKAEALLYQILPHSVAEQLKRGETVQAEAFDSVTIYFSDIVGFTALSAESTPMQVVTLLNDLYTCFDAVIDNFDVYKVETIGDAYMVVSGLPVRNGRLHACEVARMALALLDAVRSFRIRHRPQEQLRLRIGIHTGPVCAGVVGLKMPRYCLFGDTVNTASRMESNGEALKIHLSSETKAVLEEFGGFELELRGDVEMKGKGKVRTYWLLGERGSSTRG
T4 sequence (peptide): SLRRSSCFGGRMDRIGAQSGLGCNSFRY

[5] = target: T5, human Natriuretic Peptide Receptor 1 (hNPR1) (human, UniProt P16066 33-473, limits assumed); experiment: ELISA, IgG titrated on coated antigen, fluorescence [Cont.]
T5 construct: pannings used NPR1-hFc; also called NPR1-hFc
T5 sequence: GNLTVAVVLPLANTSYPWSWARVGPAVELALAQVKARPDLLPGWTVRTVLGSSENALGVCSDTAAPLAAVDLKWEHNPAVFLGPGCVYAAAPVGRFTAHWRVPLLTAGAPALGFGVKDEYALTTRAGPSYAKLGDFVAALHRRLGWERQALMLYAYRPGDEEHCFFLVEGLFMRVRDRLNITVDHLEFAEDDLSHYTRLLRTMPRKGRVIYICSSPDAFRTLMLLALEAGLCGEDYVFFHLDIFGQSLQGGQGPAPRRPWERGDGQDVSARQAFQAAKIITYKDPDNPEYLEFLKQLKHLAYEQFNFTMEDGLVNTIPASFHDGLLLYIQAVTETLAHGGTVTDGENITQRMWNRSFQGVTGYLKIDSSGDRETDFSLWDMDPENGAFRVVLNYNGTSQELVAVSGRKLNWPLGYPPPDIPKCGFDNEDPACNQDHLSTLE

hNPR1-ANP complex [6] = target: T1, hNPR1-ANP complex; experiment: ELISA, IgG titrated on coated antigen with ANP (250 fold molar excess), fluorescence [Cont.]; remark: listed apart in the source
rNPR1-ANP complex [7] = target: T2, rNPR1-ANP complex; experiment: as above; remark: listed apart in the source
[8] = target: T4, human NPR1 on CHO-K1 cells in the …; experiment: flow cytometry (FL2-H) on hNPR1 CHO-K1 cells with saturating ANP, IgG titrated; control parental CHO-K1 [panel YY03]
[9] = target: T5, human Natriuretic Peptide Receptor 1 …; experiment: ELISA, IgG titrated on coated antigen, fluorescence [Cont.]; remark: listed apart in the source
rat NPR1 (rNPR1) = target: T6, rat NPR1 (rNPR1) (rat, UniProt P18910 29-469, limits assumed); experiment: as above
T6 construct: Soluble antigen
T6 sequence: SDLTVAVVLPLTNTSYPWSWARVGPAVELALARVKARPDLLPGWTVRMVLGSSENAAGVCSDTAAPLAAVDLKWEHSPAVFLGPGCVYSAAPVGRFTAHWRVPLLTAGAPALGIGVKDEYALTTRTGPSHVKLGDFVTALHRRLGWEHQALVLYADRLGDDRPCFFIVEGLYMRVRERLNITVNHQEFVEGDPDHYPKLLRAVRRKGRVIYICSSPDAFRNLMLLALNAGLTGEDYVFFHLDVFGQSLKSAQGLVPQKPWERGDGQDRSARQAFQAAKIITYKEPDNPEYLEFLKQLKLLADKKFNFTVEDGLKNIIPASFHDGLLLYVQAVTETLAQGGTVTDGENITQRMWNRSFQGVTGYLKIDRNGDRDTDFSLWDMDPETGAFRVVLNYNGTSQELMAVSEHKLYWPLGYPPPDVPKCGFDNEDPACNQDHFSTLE

[10] = target: T4, human NPR1 on CHO-K1 cells in the …; experiment: flow cytometry (FL2-H) on hNPR1 CHO-K1 cells with saturating ANP, IgG titrated; control parental CHO-K1 [Cont.), panel XX08]

B1: YY02 (IgG format) (antibody, V domains shown)
VH: EVQLVESGGGLVKPGGSLRLSCAASGFTFSSYSMNWVRQAPGKGLEWVSSISSSSSYIYYADSVKGRFTISRDNAKNSLYLQMNSLRAEDTAVYYCARSGYRGVYGFDYWGQGTLVTVSS
VL: DIQMTQSPSSVSASVGDRVTITCRASQGISSWLAWYQQKPGKAPKLLIYAASSLQSGVPSRFSGSGSGTDFTLTISSLQPEDFATYYCQQYYHSPLTFGQGTKVEIKR
notes: IgG format; also called YY02_LALA
EC50 (read off the curve) (hNPR1-ANP complex [1]): ~0.8 nM
EC50 (read off the curve) (rNPR1-ANP complex [2]): ~0.3 nM
EC50 (read off the curve) [3]: ~200 nM
EC50 (read off the curve) [4]: ~1 nM

B2: YY03 (IgG format) (antibody, V domains shown)
VH: EVQLLESGGGLVQPGGSLRLSCAASGFTFSSYAISWVRQAPGKGLEWVSAISGSGGSTYYAESVKGRFTISRDNSKNTLYLQMNSLRAEDTAVYYCARESGYVYYLKFDYWGQGTLVTVSS
VL: DIQMTQSPSSLSASVGDRVTITCRASQSISSYLNWYQQKPGKAPKLLIYAASSLQSGVPSRFSGSGSGTDFTLTISSLQPEDFATYYCQQHVRVPITFGQGTKVEIKR
notes: IgG format; also called YY03_LALA
binding result [5]: binds
EC50 (read off the curve) (hNPR1-ANP complex [6]): ~1 nM
EC50 (read off the curve) (rNPR1-ANP complex [7]): ~0.2 nM
EC50 (read off the curve) [8]: ~2 nM

B3: XX08 (antibody, V domains shown)
VH: EVQLLESGGGLVQPGGSLRLSCAASGFTFNTHYIHWVRQAPGKGLEWVSSIGGQGGMTLYADSVKGRFTISRDNSKNTLYLQMNSLRAEDTAVYYCARERGYVYYHMFDPWGQGTLVTVSS
VL: DIVLTQSPATLSLSPGERATLSCRASQSITRNYLAWYQQKPGQAPRLLIYGASSRATGIPARFSGSGSGTDFTLTISSLEPEDFAVYYCQQHSMYPRTFGQGTKVEIKR
notes: x axis reads IgG conc; [nM]; also called XX08 (IgG format)
EC50 (read off the curve) [9]: ~20 nM
EC50 (read off the curve) (rat NPR1 (rNPR1)): ~20 nM
EC50 (read off the curve) [10]: ~2 nM

— patent US20240052042A1 (Novartis, published 2024)
